Test results taken from patent publication US5141947A, “Fibrinolysis-enhancing agents” (Mitsubishi Kasei Corporation, priority 1984, dated 1992).

Tested on: thrombus in carotid artery of rabbit
Assay: in vivo thrombolysis by t-PA, rabbit carotid artery thrombus (Example 4)
Details: for Thrombus Protein: 2 h infusion, femoral vein, n=4, saline control 1.97 ± 0.38
Experimental: The carotid artery of a rabbit was exposed from the surrounding tissue under anesthesia by pentobarbital. The exposed artery was surrounded with absorbent cotton soaked with glacial acetic acid and allowed to stay for 3 hours to form thrombus by the damage done to the endorthelium. The thus formed thrombus was tested for dissolution. Immediately after removing out the cotton, physiological saline in which the substance to be tested had been dissolved was injected through the femoral vein. The infusion was continued over 2 hours. After the infusion, the arterial segment wherein the thrombus had been formed was cut out and the thrombus mass was removed out under a microscope. The thrombus was dissolved in alkali and the protein was quantitatively measured by phenol method.

B1: t-PA: single or double chain tissue plasminogen activator (t-PA) (protein, UniProt P00750 36-562, looked up)
Tissue-type plasminogen …: SYQVICRDEKTQMIYQQHQSWLRPVLRSNRVEYCWCNSGRAQCHSVPVKSCSEPRCFNGGTCQQALYFSDFVCQCPEGFAGKCCEIDTRATCYEDQGISYRGTWSTAESGAECTNWNSSALAQKPYSGRRPDAIRLGLGNHNYCRNPDRDSKPWCYVFKAGKYSSEFCSTPACSEGNSDCYFGNGSAYRGTHSLTESGASCLPWNSMILIGKVYTAQNPSAQALGLGKHNYCRNPDGDAKPWCHVLKNRRLTWEYCDVPSCSTCGLRQYSQPQFRIKGGLFADIASHPWQAAIFAKHRRSPGERFLCGGILISSCWILSAAHCFQERFPPHHLTVILGRTYRVVPGEEEQKFEVEKYIVHKEFDDDTYDNDIALLQLKSDSSRCAQESSVVRTVCLPPADLQLPDWTECELSGYGKHEALSPFYSERLKEAHVRLYPSSRCTSQHLLNRTVTDNMLCAGDTRSGGPQANLHDACQGDSGGPLVCLNDGRMTLVGIISWGLGCGQKDVPGVYTKVTNYLDWIRDNMRP
- thrombolytic effect (t-PA 0.48 mg/kg alone): no thrombolytic effect
- Thrombus Protein (t-PA 0.48 mg/kg alone): 2.45 ± 0.81 mg
- Thrombus Protein (t-PA 0.96 mg/kg alone): 0.40 ± 0.16 mg
